Laboratory results taken from US20230374147A1 (HUMMINGBIRD BIOSCIENCE PTE, published 2023).
Changes are numbered by the printed parent chain. Where two headings read alike, the source gives them in different places.

T1: His-tagged human BCMA (Acro Biosystems, Cat. #BCA-H522y) (human, UniProt Q02223 1-54)
T1 construct: also called huBCMA; P1; not shown: His tag
T1 sequence: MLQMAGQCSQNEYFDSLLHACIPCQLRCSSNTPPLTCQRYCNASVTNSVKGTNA

T2: human TACI expressed on cells (human, UniProt O14836 1-293)
T2 construct: also called wildtype human TACI
T2 sequence: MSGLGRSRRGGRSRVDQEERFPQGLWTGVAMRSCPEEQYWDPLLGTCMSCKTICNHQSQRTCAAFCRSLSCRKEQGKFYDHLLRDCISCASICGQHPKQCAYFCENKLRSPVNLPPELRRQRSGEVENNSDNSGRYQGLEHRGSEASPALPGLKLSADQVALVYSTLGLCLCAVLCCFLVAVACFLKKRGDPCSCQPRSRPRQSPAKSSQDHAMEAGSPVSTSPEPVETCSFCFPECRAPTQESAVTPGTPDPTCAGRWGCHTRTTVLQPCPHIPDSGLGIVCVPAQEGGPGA

T3: BCMA Mut (human, UniProt Q02223 1-184)
T3 construct: Expressed on HEK293T cells; also called human BCMA comprising the substitutions Y13A, D15A, L17G and L18G
T3 chain: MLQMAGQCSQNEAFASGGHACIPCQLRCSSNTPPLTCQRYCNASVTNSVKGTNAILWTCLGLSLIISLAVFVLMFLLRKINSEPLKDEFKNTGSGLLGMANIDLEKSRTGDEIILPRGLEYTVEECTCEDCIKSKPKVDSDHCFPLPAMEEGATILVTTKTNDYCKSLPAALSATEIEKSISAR

T4: His-tagged mouse BCMA (Acro Biosystems, BCA-M52H3) (mouse, UniProt O88472 1-49)
T4 construct: Bought protein; not shown: His tag
T4 chain: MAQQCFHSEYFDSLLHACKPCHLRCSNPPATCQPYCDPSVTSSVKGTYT

T5: human BCMA expressed on cells (human, UniProt Q02223 1-184)
T5 construct: the cell line is named under assay; also called wildtype human BCMA
T5 sequence: T3 chain with A13Y, A15D, G17L, G18L

T6: recombinant his-tagged human TACI (Sinobiological cat #11937-H08H) (human, UniProt O14836 1-165)
T6 construct: Bought protein; also called Human TACI-His; huTACI; not shown: His tag
T6 sequence: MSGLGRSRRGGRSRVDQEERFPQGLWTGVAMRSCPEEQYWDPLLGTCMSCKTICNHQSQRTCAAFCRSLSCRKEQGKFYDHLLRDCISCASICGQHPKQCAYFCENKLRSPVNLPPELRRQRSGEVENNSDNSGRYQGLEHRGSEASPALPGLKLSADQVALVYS

B1: 539-SP1-C8 hIgG1 (antibody, V domains shown)
VH: EVQLQQSGPELVKPGSSVKMSCKASGYTFTNYVMHWVKQKPGQGLEWIGYILPYNDGTKYNEKFKGKATLTSDKSSSTAYMEFSVLTSEDSAVYYCARYDYEGSFDYWGQGTALTVSS
VL: DIQMTQTTSSLSASLGDRVTISCRASQDISNYLNWYQQKPDGTVKLLMCYTSRLHSGVPSRFSGSGSGTDFSLTISNLEQEDIATYFCQQGNTFPPTFGGGTKLEIKR
notes: Human-mouse chimeric antibody, human IgG1 format; also called [2]
B2: 538-SP5-B10 hIgG1 (antibody, V domains shown)
VH: EVQLQQSGPELVKPGASVKMSCKASGYTFTSYVMHWVKQKPGRGLEWIAYILPFNDVTKYNEKFKGKATLTSDKSSNTAYMELSSLTSEDSAVYYCARWEWDDGYFDYWGQGTTLTVSS
VL: DAVMTQTPLSLPVSLGDQASISCRSSQSLENSNGNTYLNWYLQKPGQSPQLLIYRVSNRFSGVLDRFSGSGSGTDFTLKISRVEAEDLGVYFCLQVSHVPFTFGAGTKLELKR
notes: Human-mouse chimeric antibody, human IgG1 format
B3: 539-SP7-F4 hIgG1 (antibody, V domains shown)
VH: EVQLQQSGPELVKPGASMKISCKASGYSFTGYIMNWVKQSHGKNLEWIGLINPYNGDSIYNQKFKGKATLTVDKSSSTAYMELFSLTSEDSTVYYCAAGEEFAYWGQGTLVTVSA
VL: DIQMTQTSSSLSASLGDRVTISCRASQDISIYLNWFQQKPDGTVKLLIYFTSRLHPGVPSRFSASGSGTDYSLTISHLEHEDIATYFCQQGNTLPRTFGGGTKVELKR
notes: as for B2

Assays:
[1] = target: T1, His-tagged human BCMA (Acro Biosystems, …); assay: ELISA, coated His-tagged human BCMA
[2] = target: T2, human TACI expressed on cells; assay: flow cytometry, HEK 293 cells expressing human TACI
BCMA Mut = target: T3, BCMA Mut; assay: flow cytometry on HEK293T cells expressing BCMA Mut
[3] = target: T4, His-tagged mouse BCMA (Acro Biosystems, …); assay: BLI, His-tagged mouse BCMA on HIS1K tip; R2 0.9403
[4] = target: T1, His-tagged human BCMA (Acro Biosystems, …); assay: ELISA, coated His-tagged human BCMA; remark: listed apart in the source
[5] = target: T7, His-tagged cynomolgous macaque BCMA (Acro Biosystems, BCA-C52H7) (cynomolgus macaque, UniProt Q02223 1-54 (human entry)); assay: BLI, His-tagged cynomolgus BCMA on HIS1K tip; R2 0.9915
T7 construct: Bought protein; also called cyno BCMA; CyBCMA; not shown: His tag

[6] = target: T4, His-tagged mouse BCMA (Acro Biosystems, …); assay: BLI, His-tagged mouse BCMA on HIS1K tip
[7] = target: T5, human BCMA expressed on cells; assay: flow cytometry, HEK293 cells stably expressing human BCMA
[8] = target: T6, recombinant his-tagged human TACI …; assay: ELISA, coated His-tagged human TACI
[9] = target: T7, His-tagged cynomolgous macaque BCMA …; assay: BLI, His-tagged cynomolgus BCMA on HIS1K tip
[10] = target: T5, human BCMA expressed on cells; assay: flow cytometry, H929 cells (BCMA-expressing)
[11] = target: T5, human BCMA expressed on cells; assay: flow cytometry, H929 cells (BCMA-expressing); remark: listed apart in the source
[12] = target: T8, cynomolgous macaque BCMA expressed on CHOK1 cells; assay: flow cytometry, CHOK1 cells transiently expressing cynomolgus BCMA
T8 construct: also called cyno BCMA on cells

[13] = target: T6, recombinant his-tagged human TACI …; assay: ELISA, coated His-tagged human TACI; remark: listed apart in the source
[14] = target: T5, human BCMA expressed on cells; assay: flow cytometry, HEK 293 cells expressing human BCMA
[15] = target: T1, His-tagged human BCMA (Acro Biosystems, …); assay: BLI, His-tagged human BCMA on HIS1K tip, no APRIL; R2 0.9915
[16] = target: T1, His-tagged human BCMA (Acro Biosystems, …); assay: BLI, His-tagged human BCMA on HIS1K tip; R2 0.9915
[17] = target: T1, His-tagged human BCMA (Acro Biosystems, …); assay: competition ELISA: His-tagged human BCMA binding to coated APRIL-Fc in the presence of the antibody
[18] = target: T1, His-tagged human BCMA (Acro Biosystems, …); assay: BLI, His-tagged human BCMA on HIS1K tip
[19] = target: T4, His-tagged mouse BCMA (Acro Biosystems, …); assay: BLI, His-tagged mouse BCMA on HIS1K tip; R2 0.9686
[20] = target: T1, His-tagged human BCMA (Acro Biosystems, …); assay: BLI, His-tagged human BCMA on HIS1K tip, no APRIL; R2 0.9919
[21] = target: T7, His-tagged cynomolgous macaque BCMA …; assay: BLI, His-tagged cynomolgus BCMA on HIS1K tip; R2 0.9022
[22] = target: T1, His-tagged human BCMA (Acro Biosystems, …); assay: BLI, His-tagged human BCMA on HIS1K tip; R2 0.9919
[23] = target: T8, cynomolgous macaque BCMA expressed on …; assay: flow cytometry, CHOK1 cells transiently expressing cynomolgus BCMA; remark: listed apart in the source
[24] = target: T6, recombinant his-tagged human TACI …; assay: ELISA, coated His-tagged human TACI; remark: listed apart in the source
[25] = target: T4, His-tagged mouse BCMA (Acro Biosystems, …); assay: BLI, His-tagged mouse BCMA on HIS1K tip; R2 0.2621, below the filing's cut-off of 0.9
[26] = target: T1, His-tagged human BCMA (Acro Biosystems, …); assay: BLI, His-tagged human BCMA on HIS1K tip, no APRIL; R2 0.9903
[27] = target: T1, His-tagged human BCMA (Acro Biosystems, …); assay: BLI, His-tagged human BCMA on HIS1K tip; R2 0.9903
[28] = target: T7, His-tagged cynomolgous macaque BCMA …; assay: BLI, His-tagged cynomolgus BCMA on HIS1K tip; R2 0.9205
[29] = target: T5, human BCMA expressed on cells; assay: flow cytometry, HEK293 cells stably expressing human BCMA; remark: listed apart in the source

| Binder | EC50 (read off the curve) [1] [µg/mL] | EC50 [2] [nM] | binding result (BCMA Mut) | EC50 [4] [nM] | Mouse BCMA response [6] | EC50 (read off the curve) [7] [µg/mL] | EC50 (read off the curve) [8] [µg/mL] | Cyno BCMA response [9] | EC50 (read off the curve) [10] [nM] | EC50 (read off the curve) [11] [µg/mL] | binding result [12] | EC50 [13] [nM] | EC50 [14] [nM] | IC50 [17] [nM] | Human BCMA response [18] | further results |
| --- | --- | --- | --- | --- | --- | --- | --- | --- | --- | --- | --- | --- | --- | --- | --- | --- |
| B1 | ~0.009 | 8.2 | no binding | 0.059 | 0.86 | ~0.4 | ~0.01 | 0.456 | ~1 | ~0.02 | binds | 0.083 | 2.56 | 1.17 | 2.46 | Kd [3]: 29.5 nM; Kd [5]: 14.7 nM; Kd [15]: < 0.001 nM; Kd [16]: < 0.001 nM |
| B2 | ~0.01 | 24.1 | no binding | 0.085 | 1.31 | ~0.03 | ~0.4 | 0.895 | ~1 | ~0.03 | binds | 2.53 | 0.21 | 0.39 | 2.35 | Kd [19]: 47.5 nM; Kd [20]: < 0.001 nM; Kd [21]: 31.4 nM; Kd [22]: < 0.001 nM |
| B3 | – | – | – | – | 0.371 | – | – | 1.36 | – | ~0.04 | – | – | – | – | 2.61 | binding result [23]: binds; binding result [24]: no binding (tested: 10 ug/ml); Kd [25]: 8.97 nM; Kd [26]: < 0.001 nM; Kd [27]: < 0.001 nM; Kd [28]: 34.1 nM; EC50 (read off the curve) [29]: ~0.05 µg/mL |
